Measured values taken from US20240132578A1.

Key:
[1] = target: WT JR-FL gp120 (HIV-1 JR-FL); experiment: ELISA, antigen-coated wells, mAb titrated; EC50 by nonlinear regression
[2] = target: JR-FL gp120 ΔV1/ΔV2 (HIV-1 JR-FL); experiment: as above
[3] = target: HIV-1 envelope glycoprotein (Env) of isolate 94 KE 105, subtype AC (HIV-1); experiment: cell-based or functional assay
[4] = target: HIV-1 envelope glycoprotein (Env) of isolate 93IN905, on pseudovirus (HIV-1); experiment: cell-based or functional assay
[5] = target: HIV-1 Env of isolate MGRM-AE-006 (pseudovirus) (HIV-1); experiment: cell-based or functional assay
[6] = target: HIV-1 Env of isolate MGRM-AE-005 (pseudovirus) (HIV-1); experiment: cell-based or functional assay
[7] = target: HIV-1 Env of isolate MGRM-AE-004 (pseudovirus) (HIV-1); experiment: cell-based or functional assay
[8] = target: HIV-1 envelope glycoprotein (Env) of isolate VLGCB3, on pseudovirus (HIV-1); experiment: cell-based or functional assay
[9] = target: HIV-1 Env of isolate MGRM-Chronic-B-017 (HIV-1); experiment: cell-based or functional assay
[10] = target: HIV-1 Env of isolate TRO.11 (HIV-1); experiment: cell-based or functional assay
[11] = target: HIV-1 Env of isolate 98IN022 (HIV-1); experiment: cell-based or functional assay
[12] = target: HIV-1 Env of isolate SF162 (HIV-1) (UniProt P19550); experiment: cell-based or functional assay
[13] = target: HIV-1 Env of isolate MGRM-Chronic-B-018 (HIV-1); experiment: cell-based or functional assay
[14] = target: HIV-1 Env of isolate 93MW959 (HIV-1); experiment: cell-based or functional assay
[15] = target: HIV-1 Env of isolate THR0.18 (HIV-1); experiment: cell-based or functional assay
[16] = target: HIV-1 Env of isolate MGRM-Chronic-B-010 (HIV-1); experiment: cell-based or functional assay
[17] = target: HIV-1 Env of isolate VLGCB3 (HIV-1); experiment: cell-based or functional assay
[18] = target: HIV-1 Env of isolate 93IN905 (HIV-1); experiment: cell-based or functional assay
[19] = target: HIV-1 Env of isolate MGRM-Chronic-B-011 (HIV-1); experiment: cell-based or functional assay
[20] = target: HIV-1 Env of isolate JRCSF (HIV-1) (UniProt P20871); experiment: cell-based or functional assay
[21] = target: HIV-1 Env of isolate MGRM-Chronic-B-020 (HIV-1); experiment: cell-based or functional assay
[22] = target: HIV-1 Env of isolate 97ZA012 (HIV-1); experiment: cell-based or functional assay
[23] = target: HIV-1 Env of isolate SC422661.8 (HIV-1); experiment: cell-based or functional assay
[24] = target: HIV-1 Env of isolate QH0692.42 (HIV-1); experiment: cell-based or functional assay
[25] = target: HIV-1 Env of isolate MGRM-Chronic-B-023 (HIV-1); experiment: cell-based or functional assay
[26] = target: HIV-1 Env of isolate PVO.4 (HIV-1); experiment: cell-based or functional assay
[27] = target: HIV-1 Env of isolate MGRM-Chronic-B-024 (HIV-1); experiment: cell-based or functional assay
[28] = target: HIV-1 Env of isolate NL43 (HIV-1); experiment: cell-based or functional assay
[29] = target: HIV-1 Env of isolate MGRM-Chronic-B-012 (HIV-1); experiment: cell-based or functional assay
[30] = target: HIV-1 Env of isolate TRJ04551.58 (HIV-1); experiment: cell-based or functional assay

Chain of PGT-142 (4995_E20) (antibody) (VH): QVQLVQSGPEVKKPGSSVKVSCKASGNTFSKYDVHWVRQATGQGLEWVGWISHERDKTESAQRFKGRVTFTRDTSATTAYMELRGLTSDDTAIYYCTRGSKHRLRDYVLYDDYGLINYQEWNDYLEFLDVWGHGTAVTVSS
Chain of PGT-142 (4995_E20) (antibody) (VL): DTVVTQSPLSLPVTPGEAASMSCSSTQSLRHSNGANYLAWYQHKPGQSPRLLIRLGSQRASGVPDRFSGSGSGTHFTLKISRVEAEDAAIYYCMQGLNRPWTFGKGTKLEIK
Chain of PGT-145 (4995_P16) (antibody) (VH): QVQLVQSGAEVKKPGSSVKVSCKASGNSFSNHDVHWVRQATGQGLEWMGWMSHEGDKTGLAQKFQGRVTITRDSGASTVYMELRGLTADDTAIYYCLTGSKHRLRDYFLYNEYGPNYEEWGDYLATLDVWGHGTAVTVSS
Chain of PGT-145 (4995_P16) (antibody) (VL): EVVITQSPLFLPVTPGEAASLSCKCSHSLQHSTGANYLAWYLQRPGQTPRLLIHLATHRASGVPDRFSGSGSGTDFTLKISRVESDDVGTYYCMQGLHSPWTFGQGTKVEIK
Chain of PGT-141 (4964_G22; 4993_K13) (antibody) (VH): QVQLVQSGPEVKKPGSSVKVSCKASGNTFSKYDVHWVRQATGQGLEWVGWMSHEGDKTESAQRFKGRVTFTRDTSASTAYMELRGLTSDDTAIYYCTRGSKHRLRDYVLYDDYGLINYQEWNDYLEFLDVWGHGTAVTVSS
Chain of PGT-144 (4970_K22) (antibody) (VH): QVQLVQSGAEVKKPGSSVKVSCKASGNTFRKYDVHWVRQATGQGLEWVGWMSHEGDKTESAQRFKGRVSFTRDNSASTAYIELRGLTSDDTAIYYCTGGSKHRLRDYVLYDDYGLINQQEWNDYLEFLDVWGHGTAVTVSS
Chain of PGT-144 (4970_K22) (antibody) (VL): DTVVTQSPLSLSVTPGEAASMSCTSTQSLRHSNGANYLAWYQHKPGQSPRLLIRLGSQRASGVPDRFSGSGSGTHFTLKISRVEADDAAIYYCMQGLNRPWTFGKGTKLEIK
Chain of PGT-143 (4980_N08) (antibody) (VH): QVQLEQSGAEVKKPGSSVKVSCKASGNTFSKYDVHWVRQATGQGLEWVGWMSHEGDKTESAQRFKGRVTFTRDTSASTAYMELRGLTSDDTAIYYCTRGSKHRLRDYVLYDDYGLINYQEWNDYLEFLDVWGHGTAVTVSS
Chain of PGT-143 (4980_N08) (antibody) (VL): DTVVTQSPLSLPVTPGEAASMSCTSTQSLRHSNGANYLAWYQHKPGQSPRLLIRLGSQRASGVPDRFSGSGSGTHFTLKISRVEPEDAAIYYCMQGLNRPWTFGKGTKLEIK

Substance | IC50, pseudovirus neutralization [9] [µg/mL] | IC50, pseudovirus neutralization [10] [µg/mL] | IC50, pseudovirus neutralization [11] [µg/mL] | IC50, pseudovirus neutralization [12] [µg/mL] | IC50, pseudovirus neutralization [13] [µg/mL] | IC50, pseudovirus neutralization [14] [µg/mL] | IC50, pseudovirus neutralization [15] [µg/mL] | IC50, pseudovirus neutralization [16] [µg/mL] | IC50, pseudovirus neutralization [17] [µg/mL] | IC50, pseudovirus neutralization [18] [µg/mL] | IC50, pseudovirus neutralization [19] [µg/mL] | IC50, pseudovirus neutralization [20] [µg/mL] | IC50, pseudovirus neutralization [21] [µg/mL] | IC50, pseudovirus neutralization [22] [µg/mL] | IC50, pseudovirus neutralization [23] [µg/mL] | IC50, pseudovirus neutralization [24] [µg/mL] | IC50, pseudovirus neutralization [25] [µg/mL] | IC50, pseudovirus neutralization [26] [µg/mL] | IC50, pseudovirus neutralization [27] [µg/mL] | IC50, pseudovirus neutralization [28] [µg/mL] | other results
5145_B14 (PGT-127) (antibody) | – | – | – | – | – | – | – | – | – | – | – | – | – | – | – | – | – | – | – | – | EC50 [1]: 0.1 µg/mL; EC50 [2]: 0.7 µg/mL; IC50, pseudovirus neutralization [3]: 0.023 µg/mL; IC50, pseudovirus neutralization [4]: 0.024 µg/mL; IC50 (µg/mL), pseudovirus neutralization [5]: > 50 µg/mL; IC50 (µg/mL), pseudovirus neutralization [6]: > 50 µg/mL; IC50 (µg/mL), pseudovirus neutralization [7]: > 50 µg/mL; IC50, pseudovirus neutralization [8]: 0.022 µg/mL
PGT-141 (4964_G22; 4993_K13) (antibody) | 0.147 | 0.383 | 0.001 | > 50 | 0.572 | 0.003 | 0.007 | > 50 | > 50 | 0.001 | 2.24 | 0.009 | > 50 | > 50 | 1.66 | > 50 | 0.318 | 0.113 | 0.011 | > 50 | IC50, pseudovirus neutralization [29]: > 50 µg/mL; IC50, pseudovirus neutralization [30]: > 50 µg/mL
PGT-142 (4995_E20) (antibody) | 0.076 | 0.27 | 0.001 | > 50 | 0.323 | 0.001 | 0.012 | > 50 | > 50 | 0.001 | 0.994 | 0.01 | > 50 | > 50 | 3.15 | > 50 | 0.486 | 0.066 | 0.005 | > 50 | IC50, pseudovirus neutralization [29]: > 50 µg/mL; IC50, pseudovirus neutralization [30]: > 50 µg/mL
PGT-143 (4980_N08) (antibody) | 0.145 | 0.219 | 0.001 | > 50 | 0.377 | 0.002 | 0.016 | > 50 | > 50 | 0.002 | 1.56 | 0.007 | > 50 | > 50 | 2.02 | > 50 | 0.236 | 0.162 | 0.01 | > 50 | IC50, pseudovirus neutralization [29]: > 50 µg/mL; IC50, pseudovirus neutralization [30]: > 50 µg/mL
PGT-144 (4970_K22) (antibody) | 0.712 | 4.73 | 0.171 | > 50 | 2.4 | 0.332 | 0.029 | > 50 | > 50 | 0.132 | 5.64 | 0.149 | > 50 | > 50 | > 50 | > 50 | > 50 | 0.535 | 0.04 | > 50 | IC50, pseudovirus neutralization [29]: > 50 µg/mL; IC50, pseudovirus neutralization [30]: > 50 µg/mL
PGT-145 (4995_P16) (antibody) | 0.054 | 0.044 | 0.005 | > 50 | 0.013 | 1.2 | 0.013 | > 50 | > 50 | 0.002 | 0.206 | 0.002 | > 50 | 0.915 | 0.079 | > 50 | 0.009 | 0.299 | 0.018 | 0.006 | IC50, pseudovirus neutralization [29]: 9.66 µg/mL; IC50, pseudovirus neutralization [30]: > 50 µg/mL
PGV04 (antibody) | – | – | – | – | – | – | – | – | – | – | – | – | – | – | – | – | – | – | – | – | IC50 (µg/mL), pseudovirus neutralization [10]: 0.121 µg/mL; IC50 (µg/mL), pseudovirus neutralization [11]: 5.69 µg/mL; IC50 (µg/mL), pseudovirus neutralization [14]: > 50 µg/mL; IC50 (µg/mL), pseudovirus neutralization [15]: > 50 µg/mL; IC50 (µg/mL), pseudovirus neutralization [17]: 0.045 µg/mL; IC50 (µg/mL), pseudovirus neutralization [18]: 0.332 µg/mL; IC50 (µg/mL), pseudovirus neutralization [5]: > 50 µg/mL; IC50 (µg/mL), pseudovirus neutralization [22]: 0.041 µg/mL; IC50 (µg/mL), pseudovirus neutralization [23]: 0.11 µg/mL; IC50 (µg/mL), pseudovirus neutralization [24]: 1.9 µg/mL; IC50 (µg/mL), pseudovirus neutralization [6]: 0.051 µg/mL; IC50 (µg/mL), pseudovirus neutralization [26]: 0.454 µg/mL; IC50 (µg/mL), pseudovirus neutralization [7]: 0.183 µg/mL; IC50 (µg/mL), pseudovirus neutralization [27]: 2.52 µg/mL; IC50 (µg/mL), pseudovirus neutralization [28]: 0.028 µg/mL; IC50 (µg/mL), pseudovirus neutralization [30]: 0.028 µg/mL
